The results in this text go back to US6770740B1, “Crosslinked DNA condesate compositions and gene delivery methods” (The Regents of the University of Michigan, priority 1999, dated 2004).

Series [1] concerns HepG2 cells. Kind of series: Luciferase reporter gene expression in HepG2 cells, Example 5. The series is classed as cell-based. On the procedure: HepG2 cells (1.5×10^5) were plated on 6×35 mm wells and grown to 40-70% confluency in MEM supplemented with 10% FBS, penicillin and streptomycin (10,000 U/ml), sodium pyruvate (100 mM), and L-glutamine (200 mM). Transfections were performed in MEM (2 ml per 35 mm well) with 2% FBS and 80 μM chloroquine. Peptide DNA condensates (10 μg of DNA in 0.2 ml HBM) were added dropwise to triplicate wells. After a 5 h incubation at 37° C., the media was replaced with MEM supplemented with 10% FBS. After 24 h, cells were washed twice with ice-cold phosphate buffered saline (calcium and magnesium free) and then treated with 0.5 ml of ice-cold lysis buffer (25 mM Tris chloride pH 7.8, 1 mM EDTA, 8 mM magnesium chloride, 1% Triton X-100, 1 mM DTT) for 10 min. The cell lysate was scraped, transferred to 1.5 ml microcentrifuge tubes, and centrifuged for 7 min at 13,000 g at 4° C. to pellet debris.
Lysis buffer (300 μl), sodium-ATP (4 μl of a 180 mM solution, pH 7, 4° C.) and cell lysate (100 μl, 4° C.) were combined in a test tube, briefly mixed and immediately placed in the luminometer. Luciferase relative light units (RLU) were recorded on a Lumat™ LB 9501 (Berthold systems, Germany) with 10 sec integration after automatic injection of 100 μl of 0.5 mM D-luciferin (prepared fresh in lysis buffer without DTT). The RLU were converted in fmol using a standard curve generated by adding a known amount of luciferase (0.01 to 100 fmols with specific activity of 2.5 nU/fmol) to 35 mm wells containing 40-70% confluent HepG2 cells. The cells were processed as described above resulting in a standard curve with an average slope of 7.8×10^6 RLU per fmol of enzyme. Protein concentrations were measured by Bradford assay using bovine serum albumin as a standard (Bradford, 1976). The amount of luciferase recovered in each sample was normalized to milligrams of protein and reported as the mean and standard deviation obtained from triplicate transfections.
LipofectAce™ (Gibco BRL, 1:2.5 w/w dimethyl diotadecylammonium bromide and dioleoyl phosphatidylethanolamine) was used to mediate gene transfection according to the manufacturer's instructions. The ratio of DNA to LepofectAce™ was optimized for HepG2 cells. An optimal DNA/LipofectAce™ ratio was achieved by dissolving 10 μg of DNA in 100 μl serum free media (SFM) followed by adding 60 μl of LipofectAce™ prepared in 140 μl of SFM. The LipfectAce™ DNA complex was then diluted with 1.7 ml of SFM and used to transfect HepG2 cells for 5 h followed by replacing the transfecting media with media supplemented with 10% FBS. The cells were incubated for a total of 24 h, harvested and analyzed for luciferase as described above.
A general note: In a reporter assay the amount or activity of a reporter protein is the signal.

Series [2] is described as follows: Solubility of peptide DNA condensates: particle size as a function of DNA concentration. The format is physicochemical. As to conditions: when increasing DNA concentration from 50 to 500 μg/ml.
The nature of series [3]: Particle size and zeta potential of peptide DNA condensates after freeze-drying and rehydration, Example 2. The format is physicochemical. On the procedure:
The concentration of AlkCWK18 and PEG-CWK18 were determined by UV absorbance (Trp, ε280 nm=5,600 M^−1 cm^−1). Peptide DNA condensates were prepared in 5 mM Hepes pH 5 at a peptide/DNA stoichiometry of 0.3 nmol of peptide/μg of DNA. The condensates were formed by adding 450 μL of 100 μg/mL NT-βGal drop wise to 450 μL of 30 nmol/mL AlKCWK18 or PEG-CWK18 while vortexing. Each sample was prepared in triplicate, and after a 30 min equilibration, 20-100 μL of 50 wt/vol % solutions of either glucose, mannitol, galactose, dextran or sucrose were added followed by normalization to 1 mL to give a final sugar concentration of 1-5 wt/vol % and DNA concentration of 50 μg/mL.
The mean particle size of 50 μg/mL AlkCWK18 DNA condensates were determined by quasielastic light scattering (QELS) on a Brookhaven ZetaPlus™. Samples (1 mL) were frozen rapidly in dry ice ethanol in a 1.5 mL microcentrifuge tube and then lyophilized on a Labconco™ freeze dryer for 24 h operated at a constant vacuum of 55×10^−6 mBar while maintained at room temperature (22° C.). The maximal vacuum was achieved within 2 min after applying the sample.
At the highest sucrose concentration of 5 wt/vol %, samples remained frozen throughout freeze-drying but dried to form a glassy solid after 24 h. […] Freeze-dried samples prepared in triplicate were reconstituted in 1 mL of deionized water, allowed to equilibrate for 30 min and then analyzed by QELS as described above. Large peptide DNA condensates were measured by light microscopy with magnification of 100X. The particle size of PEG-peptide DNA condensates were also measured by transmission electron microscopy (TEM) according to a published procedure (Wadhwa et al., 1997).
The relationship between pH and rehydrated peptide DNA condensate particle size was examined in 5 mM Hepes at a pH range of 3-7. The particle size of 50 μg/mL DNA condensates in 5 wt/vol % sucrose was determined by QELS before and after freeze-drying as described above.
The rehydrated particle size of AlkCWK18 or PEG-CWK18 DNA condensates were also examined at a concentration of 0.05-5 mg/mL in 5 mM Hepes pH 5 with (AlkCWK18 DNA) or without (PEG-CWK18 DNA) the addition of 5 wt/vol % sucrose. DNA condensates were freeze-dried and reconstituted to the original concentration. QELS particle size analysis before and after freeze-drying required dilution of an aliquot of the sample to concentration of 50 μg/mL. Freeze-dried 5 mg/mL PEG-CWK18 DNA condensates were also reconstituted in 0.9 wt/vol % sodium chloride and analyzed for particle size.

Series [4] in a line: QELS particle size and zeta potential of glycopeptide DNA condensates, Example 3. The format is physicochemical. As to conditions: 0.5 nmol of peptide or glycopeptide per μg of DNA; 50 μg/mL DNA in HBM. On the procedure: Glycopeptide DNA condensates were formed at a plasmid DNA concentration of 50 μg/mL in HBM (5 mM Hepes 0.27 M mannitol pH 7.4). DNA condensates were formed by combining 750 μL of plasmid DNA (100 μg/mL) with 750 μL of triantennary-CWK18 (50 nmol/mL), Man9-CWK18, or AlkCWK18 while vortexing. The particle size of glycopeptide and peptide DNA condensates were analyzed at a DNA concentration of 50 μg/mL in HBM by quasielastic light scattering (QELS) (Cohen et al., 1990). The particle surface charge was determined at 50 μg/mL in HBM by zeta potential analysis using a Brookhaven ZetaPlus™ (Brookhaven Instruments).

Where no end group is shown, it is not given here. The star is where a group is joined. Carboxymethyl = O=C(O)C*

On to “Cys-Trp-Lys17-Cys (CWKKKKKKKKKKKKKKKKKC) [Peptide II]”, for which the “chloroquine enhancement of gene expression relative to that of AlkCWK18 DNA condensates” value in series [1] is on record as “approximately 5 fold”. For the same substance, in series [1] (HepG2), the “increase in gene expression over polylysine1007 or LipofectAce” value was found to be 5 fold. For the same substance, in series [1] (HepG2, 80 μM chloroquine, 24 h), the “increase in luciferase gene expression relative to AlkCWK18 DNA condensates” value was determined as 60 fold.

For the substance “Alk-S-Cys-Trp-Lys18 (C(Carboxymethyl)WKKKKKKKKKKKKKKKKKK) [AlkCWK18]”, in series [2], the “particle size of DNA condensates” value was 60 to 400 nm. The “minimum sucrose concentration to bulk DNA condensates during freeze-drying” value in series [3] (50 μg/ml DNA condensates) came out at 1 wt/vol %. Besides, in series [3] (50 μg/ml DNA condensates, light microscopy), the “diameter of fibrous flocculates after freeze-drying and rehydration without lyoprotectant” value was “approximately 100 μm”. Besides, in series [3] (5 wt/vol % sucrose, 5 mM Hepes pH 5), the “upper limit of DNA condensate concentration below which rehydrated particle size was maintained” value is 200 µg/mL. In addition, the “mean particle diameter during rehydration” value in series [3] (5 wt/vol % sucrose, DNA concentrations up to 200 μg/mL) is “less than 50 nm”. Also, in series [3] (pH 3), the zeta potential result is “+30 mV”. Besides, the “mean particle size of DNA condensates” value in series [4] is 81 nm.
